Data taken from article PMC12710314.

What follows are sequences tested on T1, LigR (Novosphingobium aromaticivorans DSM 12444), ORF:c1f1f590 (assay: EMSA). Details: EMSA: 20 nM DNA, 50 mM Tris-HCl, 20 mM HEPES, 1 mM EDTA, 1 mM DTT, 100 mM NaCl, 10% glycerol, pH not stated, room temperature 30 min, gel at 4 C; DNase I ….
T1 sequence: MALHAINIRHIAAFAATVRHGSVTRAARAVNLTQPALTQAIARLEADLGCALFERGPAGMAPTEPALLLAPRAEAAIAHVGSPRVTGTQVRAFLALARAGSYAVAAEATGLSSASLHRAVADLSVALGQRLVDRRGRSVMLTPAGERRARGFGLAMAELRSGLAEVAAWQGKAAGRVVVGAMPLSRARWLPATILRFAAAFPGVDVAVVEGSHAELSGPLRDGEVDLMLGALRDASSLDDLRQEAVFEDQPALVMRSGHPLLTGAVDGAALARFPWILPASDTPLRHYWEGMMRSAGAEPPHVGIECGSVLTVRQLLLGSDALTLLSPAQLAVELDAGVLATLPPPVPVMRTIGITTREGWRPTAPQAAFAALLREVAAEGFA
“ATGCCCAGGCCGATGCCGCTGGCGCCGCCCGTCACGAAAGCCGTCTTGCCCGGCAGATTCTGCATCGATCCTCTCCTTTGGTGCCTTGCCGGCAGCCATCGACCGGCGCCGGGAATCATTTTTCGCCTTTTGTATTCACCAGCGAGGAATTGTATGCAAGACTAACAATATTGCTGCTTCGACAAGGCCCGCCGAAATGGGTCGCCGCAGCGGGA (double strand) [ligN upstream EMSA fragment]” was tested, and the binding was “no binding”.
In the case of “CAAAGGTCGACCCGGCCTCACCGAAGCCGATCAGGGCGATTGTGAACTCAGGAACGCTCTCCATGGCAGCGGTCCTGCGTCGGCCGCGCCAAAGGAACAAATGCAAACATCGCCCAAGGTATAAATTTATGCAAAGCCTTCTGCGGCCACTTCGCGCAGGAGGGCCGCGAAGGCCGCCTGCGGCGCGGTCGGCCGCCAAC (double strand) [SARO_RS14280 promoter EMSA fragment]”, the binding is reported as “binds”.
With “CGATCTGAAGTGCTCAACGTGCAAAGCCTGCACAAAATGACAGGTCGTGCCGGCATCTCAATCGCCTGTTGCTTCCCCTTCTGCTGATTGCTATAAATCATAACAGATTGGGAGAGAGTCATGCAGTTTGAACGCATCAATCCGATGACCGGCGCCGTCGCCTCGCAGGCAGAGGCCATGAAAGCGTCGGACATTCCTTC (double strand) [ligV upstream EMSA fragment]” the binding was “no binding”.
In the case of “GCCTTCTGCTTCTCGCGCCACTCGTCGTGCGCCTTCGGCAGCACGGTGTAGTGACCGTGGCAGTCGATGATCATGGTCATGCGACTTCAGTCCTCTCAAGTTTGAACTCTATGGTCTTGCCCGCCTGCTCGCGCTGGCGCCTCACCGTCCCGCCGGTCATCACCGGCTCGACGCCCAGCGATTCCAGCGTCTTGGCTGAC (double strand) [ligJ upstream EMSA fragment]”, the binding is reported as “no binding”.
“GGACGACGATACCCGACATTTCCGGCTCCCGATGAAAGATCTTCGCGCGTTCCATGGAACTGCGGACCGCAGGGAACCAATGCATTGTTTGCCCCGGCCCATAAGGAAATGCTAAGTGATCAGGCATGGCCCTGCACGCGATCAACATCAGGCACATCGCCGCCTTCGCCGCAACGGTGCGCCACGGCAGCGTGACGCGG (double strand) [ligK promoter EMSA fragment]” was tested, and the binding was “binds”.
